The values below come from the supplement of paper PMC10567573.

A short description of this data set: protein stability index of a GFP-peptide fusion (GPS, HEK-293T) (PSI 1-6); higher = more stable.
[1] abbreviates: treatment: DMSO, c terminus: a fixed tail appended.
[2] abbreviates: treatment: MLN4924 1 uM, 8 h, c terminus: a fixed tail appended.

± gives the standard deviation.
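Further: 24-mer peptide tiles fused after GFP, lentivirally expressed, FACS-sorted into six equal bins by GFP/DsRed ratio, decoded by Illumina sequencing, PSI is the read-weighted mean bin number.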

KGFSHLDVMLVECYDPKGDQWNIL [KLHL14]: the protein stability index amounted to 2.82 ± 0.6 under setting [1] and 2.9 ± 0.68 under setting [2].

For the sequence KHAKKEREESLPNLLQYVRMPLLT [KLHL12], the protein stability index turned out to be 3.26 ± 0.26 under setting [1] and 3.28 ± 0.16 under setting [2].

In the case of KIGCGNFGELRLGKNLYTNEYVAI [CSNK1G1], the protein stability index is 2.51 ± 0.54 under setting [1] and 2.12 ± 0.59 under setting [2].

Turning to KIKRLRSQVQVSLEDYINDRQYDS [HNF4A], the protein stability index reads like this: under setting [1], 3.23 ± 0.19; under setting [2], 3.45 ± 0.15.

Consider KIKSEEIEITFSYWDGSGHRRTVK [FAM50A], for which the protein stability index under setting [1] stood at 2.27 ± 0.21 and the protein stability index under setting [2] is 2.43 ± 0.16.

For the sequence KISKEEMVRRLKMVVKTFMDMDQD [PDS5B], the protein stability index reads like this: under setting [1], 2.26 ± 0.21; under setting [2], 2.23 ± 0.25.

KKEDTEKERDLRDVGDWRKNIEEK [TNNI2]: the protein stability index was 5.38 ± 0.26 under setting [1] and 5.39 ± 0.21 under setting [2].

KKLKIFAMPMQDIKMILKMVQLDS [PRAME] returned a protein stability index under setting [1] of 2.93 ± 0.58 and a protein stability index under setting [2] of 2.75 ± 0.56.

The sequence KKNNIKLYVRRVFIMDSCDELIPE [HSP90AB1] yielded a protein stability index under setting [2] of 2.06 ± 0.65.

As to KKRVSMILQSPAFCEELESMIQEQ [ADD1], the protein stability index under setting [1] was found to be 3.58 ± 0.27 and the protein stability index under setting [2] was 3.76 ± 0.43.

In the case of KLTDKHETVVSYLPLSHIAAQMMD [ACSBG2], the protein stability index reads like this: under setting [1], 2.66 ± 0.4; under setting [2], 2.98 ± 0.43.

KNNICFMSHHQEELVPKQPQKRKP [SLC2A12]: the protein stability index runs as follows: under setting [1], 4.31 ± 0.14; under setting [2], 4.64 ± 0.3.

For KNSDGMEAAGVQIQMVNESLGYVR [CD207], the protein stability index was found to be 3.83 ± 0.28 under setting [1] and 4.08 ± 0.13 under setting [2].

KQLLNSAVIAQQRRKPDPPKDENE [DLC1] displayed a protein stability index under setting [1] of 5.35 ± 0.28 and a protein stability index under setting [2] of 5.41 ± 0.12.

KQLNCVEISALNGNRINVPMVRKR [DLC1]: the protein stability index under setting [1] was found to be 4.12 ± 0.24 and the protein stability index under setting [2] was 4.07 ± 0.3.

As for KQNKQVLGYCLLLMLAGMGLHYIA [DNAJC4], the protein stability index runs as follows: under setting [1], 2.23 ± 0.31; under setting [2], 2.46 ± 0.37.

For the sequence KRDLLGALKYWKKAMNMRYSDRTN [FEM1C], the protein stability index turned out to be 1.95 ± 0.25 under setting [1] and 2.27 ± 0.33 under setting [2].

On to KRFTDAGFEHYDLFFIDGSTPSDN [CDC14A], for which the protein stability index was 3.45 ± 0.16 under setting [1] and 3.45 ± 0.084 under setting [2].

With KSIDDTSNFDDFPESDILQPVPNT [STK38L], the protein stability index runs as follows: under setting [1], 5.25 ± 0.24; under setting [2], 5.27 ± 0.077.

For KSPQFNRYFYLLENIAWVKSYNIC [PDS5B], the protein stability index under setting [1] was determined as 2.17 ± 0.19 and the protein stability index under setting [2] stood at 2.27 ± 0.14.

Consider KSSSLLTQTSEECNGILTEKMEEE [ZNF396], for which the protein stability index reads like this: under setting [1], 5.56 ± 0.15; under setting [2], 5.54 ± 0.27.

With KTAHDSNVLHVARLPNRQLISCSE [WDR41], the protein stability index by setting is: under setting [1], 3.6 ± 0.28; under setting [2], 3.57 ± 0.35.

With KTFYKTADISQMLVCTADGDIHLS [TAF7L], the protein stability index was 2.47 ± 0.19 under setting [1] and 2.41 ± 0.34 under setting [2].

In the case of KTLKAENAGLSSTAGLLREQVAQL [JUNB], the protein stability index under setting [1] worked out at 3.72 ± 0.38 and the protein stability index under setting [2] was 4 ± 0.15.

KTLQEIYRKYRKLIESELSYFVIV [FBXO39]: the protein stability index runs as follows: under setting [1], 2.37 ± 0.41; under setting [2], 2.62 ± 0.55.

KTRVDLKELGQSQKEQGLSDNILS [PDZK1]: the protein stability index runs as follows: under setting [1], 4.55 ± 0.1; under setting [2], 4.88 ± 0.4.

The sequence KVKPAEAETAGAIMAFFLCLGLAL [SLC29A1] returned a protein stability index under setting [1] of 2.99 ± 0.62 and a protein stability index under setting [2] of 2.86 ± 0.71.

For KVPAPKDVLAHQVPNAKKLRRKEQ [NOP53], the protein stability index by setting is: under setting [1], 4.76 ± 0.26; under setting [2], 4.99 ± 0.17.

As for KVVHAVDGTAENGIHPLSSSEVDE [PALM], the protein stability index stood at 5.25 ± 0.11 under setting [1] and 5.47 ± 0.19 under setting [2].

KYREAARLEINVLKKIKEKDKENK [CLK3]: the protein stability index reads like this: under setting [1], 4.45 ± 0.18; under setting [2], 4.25 ± 0.41.

For LAALSATISFRIYKSVLQAVQKTD [RTN1], the protein stability index by setting is: under setting [1], 2.53 ± 0.76; under setting [2], 2.28 ± 0.54.

For the sequence LAEYCVKTKAPAPDEGSDLFYDDY [CDC34], the protein stability index runs as follows: under setting [1], 4.12 ± 0.24; under setting [2], 4.33 ± 0.41.

As for LAFRSGSDNLLVILKRKWWKYILL [SLC35F2], the protein stability index runs as follows: under setting [1], 2.58 ± 0.47; under setting [2], 1.98 ± 0.54.

With LAGTFHYYSCERAKKAMGYQPLVT [NSDHL], the protein stability index under setting [1] was 2.2 ± 0.12 and the protein stability index under setting [2] came out at 2.27 ± 0.13.

Consider LALLVLAHSSDVLENVFSSLTDDK [GOLPH3L], for which the protein stability index is, setting by setting: under setting [1], 2.85 ± 0.57; under setting [2], 2.83 ± 0.49.

In the case of LANSWNCLPKHLLHSVNQRFGSNN [KLHDC2], the protein stability index by setting is: under setting [1], 2.43 ± 0.33; under setting [2], 2.3 ± 0.23.

For LASQNKPLWQCYLGRFNDINVPIR [PDS5B], the protein stability index was determined as 2.03 ± 0.73 under setting [1] and 2.72 ± 0.058 under setting [2].

The sequence LASYPLALVRTRMQAQASIEGAPE [SLC25A25] came in with a protein stability index under setting [1] of 4.03 ± 0.19 and a protein stability index under setting [2] of 4.18 ± 0.43.

With LAVAVPAVTSADSQFSQTTQAGS [LYSMD4], the protein stability index amounted to 3.91 ± 0.64 (treatment: DMSO, c terminus: native) and 3.96 ± 0.32 (treatment: MLN4924 1 uM, 8 h, c terminus: native).

On to LAVMGYDRYIAICNPLRYSVLMGH [OR10K2], for which the protein stability index is 2.55 ± 0.28 under setting [1] and 2.58 ± 0.6 under setting [2].

In turn, LDKQMSRDEHRARAMKIPFTNDKI [NFE2L1] yielded a protein stability index under setting [1] of 4.13 ± 0.32 and a protein stability index under setting [2] of 4.28 ± 0.25.

Regarding LDLDSIIDEVRTQYEEIALKSKAE [KRT71], the protein stability index was 3.91 ± 0.3 under setting [1] and 4.21 ± 0.57 under setting [2].

Take LDLLLDMPPVSYDVQLLHSWNNND [SPSB1]: the protein stability index came out at 2.66 ± 0.32 under setting [1] and 2.65 ± 0.23 under setting [2].

Take LDSDHRELIGDYSKAFLLQTVDGK [CDC25B]: the protein stability index amounted to 3.77 ± 0.061 under setting [1] and 3.81 ± 0.2 under setting [2].

In the case of LDTVELATYCVRTFALYKNGSSEK [PTPRD], the protein stability index runs as follows: under setting [1], 2.37 ± 0.042; under setting [2], 2.55 ± 0.35.

LEENDETRFILSKVPSEAPSPMPT [SLC6A17]: the protein stability index came to 4.8 ± 0.15 under setting [1] and 4.84 ± 0.17 under setting [2].

For LEGQDAKMIGFPSSAGSVSPRSTS [KRT13], the protein stability index under setting [1] turned out to be 5.18 ± 0.16 and the protein stability index under setting [2] worked out at 5.152 ± 0.026.

As for LEGQSGVTIKHVACGDFFTACLTD [NEK8], the protein stability index by setting is: under setting [1], 2.75 ± 0.28; under setting [2], 2.89 ± 0.47.

Consider LEISPDCSQYDRVYCGAGVQKEHE [PCMTD2], for which the protein stability index by setting is: under setting [1], 4.56 ± 0.3; under setting [2], 4.44 ± 0.21.

LEQFLAILPKELQAWVQKHHPENG [ZNF396]: the protein stability index is, setting by setting: under setting [1], 2.63 ± 0.14; under setting [2], 2.79 ± 0.24.

Regarding LEQRSESVRRTRSKIGFGILLSKE [SMAD6], the protein stability index stood at 3.51 ± 0.27 under setting [1] and 3.5 ± 0.3 under setting [2].

LERGRASLIFSLKNEVGGLIKALK [TPH1]: the protein stability index reads like this: under setting [1], 3.37 ± 0.36; under setting [2], 2.36 ± 0.61.

Sequence LFPPKAKSNQPKSLEDLIFESLPE [ATE1] gave a protein stability index under setting [1] of 3 ± 0.055 and a protein stability index under setting [2] of 3.66 ± 0.59.

Take LFVADAYKGLFEVNPWKREVKLLL [APMAP]: the protein stability index under setting [1] was determined as 2.56 ± 0.27 and the protein stability index under setting [2] came to 2.34 ± 0.9.

Consider LGAEIRNGMAIIRPPGHHAQHSLM [HDAC6], for which the protein stability index under setting [1] is 2.92 ± 0.096 and the protein stability index under setting [2] was found to be 2.99 ± 0.26.

Take LGAGSDLKDFTLNETVNSIFAQGA [ADAMTSL2]: the protein stability index came out at 3.12 ± 0.2 under setting [1] and 3.28 ± 0.35 under setting [2].

Consider LGGYVKIDLATWNFQFLPQVNGHP [PTPN9], for which the protein stability index runs as follows: under setting [1], 2.92 ± 0.57; under setting [2], 2.74 ± 0.86.

Take LGHAVLPSNARGPILSRSTSTGSA [SPRY1]: the protein stability index is 3.93 ± 0.18 under setting [1] and 4.15 ± 0.098 under setting [2].

Consider LGPSPQRDPQAVKERALSAPWLSL [ZNF263], for which the protein stability index by setting is: under setting [1], 2.72 ± 0.14; under setting [2], 2.77 ± 0.29.

LGRFNDINVPIRLECVKFASHCLM [PDS5B]: the protein stability index came to 2.83 ± 1.6 under setting [1] and 2.41 ± 0.94 under setting [2].

As for LGTAIFIEADRRRAQLHVQGLLHE [SPNS1], the protein stability index turned out to be 2.46 ± 0.36 under setting [1] and 2.17 ± 0.31 under setting [2].

In the case of LGTENLHLIFSYSVWVLRDFPEDG [VPS39], the protein stability index was determined as 2.94 ± 0.46 under setting [1] and 2.74 ± 0.7 under setting [2].

With LGTRESDTEVITVEKSSPATSLFV [BCL2L13], the protein stability index came to 3.84 ± 0.15 under setting [1] and 4.04 ± 0.12 under setting [2].

As for LHLAAQGRHAQTVETLLRHGAHIN [RIPK4], the protein stability index runs as follows: under setting [1], 2.4 ± 0.31; under setting [2], 2.98 ± 0.51.

Consider LISKGANVNRTTANNDHTVLSLAC [ANKRD17], for which the protein stability index runs as follows: under setting [1], 2.82 ± 0.22; under setting [2], 2.81 ± 0.27.

Sequence LKAKLQMTEAALALSEQKAQDLGE [LRRC45] registered a protein stability index under setting [1] of 4.51 ± 0.36 and a protein stability index under setting [2] of 4.57 ± 0.28.

Turning to LKIYNKREEDFPSLREYNDFLEEV [MNAT1], the protein stability index is 3.19 ± 0.39 under setting [1] and 3.68 ± 0.72 under setting [2].

Turning to LKRPVNVPFDIFTEEVKFYQLGEE [KCNA4], the protein stability index is, setting by setting: under setting [1], 3.01 ± 0.27; under setting [2], 3.27 ± 0.37.

As to LLAHRLRRWHKSRLLQASGGGLTG [PCDHGA10], the protein stability index by setting is: under setting [1], 2.52 ± 0.47; under setting [2], 2.07 ± 0.35.

For LLCWSVWWALSTCGYFQVVNYTQG [SLC19A2], the protein stability index runs as follows: under setting [1], 3.41 ± 0.59; under setting [2], 3.61 ± 0.29.

Take LLDEEEALAKKFIDKNTQLTLQVY [TRIM14]: the protein stability index amounted to 2.53 ± 0.42 under setting [1] and 2.72 ± 0.34 under setting [2].

Take LLEDDSDEEEDFFLRGPSGPRFGP [VAMP4]: the protein stability index runs as follows: under setting [1], 3.97 ± 0.28; under setting [2], 4.04 ± 0.39.
